{"source": "a protein production outcome set (Wang et al. 2014)", "test": "label from the status in PepcDB records"}
{"sequence": "MSNVVWTNFGRSSPDRMRARGGKLMAEPDFEAQLTRMFAQAPSFPDAALFNAEVMAKLDRGWAMRRMFIAVAGTGAGLIGAFQIFGSRFSNELAQLSREGSHGLETEINGGWAKLTALLSTPSSAEAVWLAAGLAVVALAFAVTRLVEDF", "values": [{"measurement": "protein production", "result": "failed"}]}
{"sequence": "MCWVCGENLQAQPYMFRNVVMSDGLSGLLVNAIYKDSEGFIWLGTDNGLDRFDGVKVKHFEFRGVDSGRKKRVNCITETDNKQLWIGNGIGLWRLNRSGSELQRIVPEKIDCAVNALLADGDVLYIGTERGLFIQKDGQLLQVQTDKNMLAACNRIMDLCLNEDKSVLWLATVQGLFSYSLKDGQINSWHFRENVPEADYFRCLTRIGETLYLGTMSQGVVCFDIPKQTFAHTVSLGCDVISDISGDGKETVYIATDGNGVHFLSHKDRKVVRRFFHDVNDKEGIRSNSIYSLLVDDRGAVWVGHFQAGLDYSLYQNGLFRTYAYPPQFNSANLSIRSFVNRGPEKVIGSRDGLFYINEATGIVKSFVKPVLTSDLILTICFYEGEYYIGTYGGGMMVLNPQTLSLKYFTQGDTELFQKGHIFCVKPDNRGNLWIGTSQGLFCYNGQTKQIKNFTSTNSQLPEGNVYEVSFDSTGKGWIATETGMCIYDPASQSLRSNVFPEGFVHKDKVRTIYEDAEHNLYFIREKGSLFTSTLTMDHFRNQSVLSTLPDNSLMSITEDNQGWLWVGCNDGLLRIKEEGEEYDSFTFNDGVPGPTFTNGAAYKDERGLLWFGNTKGLIYVDPKQVDEVRGKVRPIVFTDILANGVSINKSSLKYNQNNLTFCFTDFAYGLPSALLYEYKLEGADSDWKLLTAQSEVSYYGLSSGTYTFCVRIPGNEQSMAIYKVTVQPMIPWWGWVILAISIILIVVLVRYYVRKSAPLVTEVHEISSEEEEEEEKTAEPHPAEEKYKANRMSEAECKELHDRLVAYVEKEKPYINPDLKMGELAAALHTSSHSLSYLLNQYLNQSYYDFINEYRVAQFKKMVEDSDYSRYTLTALAELCGFSSRASFFRSFKKSTGVTPNEYIRSIGGTAKDE", "values": [{"measurement": "protein production", "result": "failed"}]}
{"sequence": "MTHNIHDNISQWMKSNEETPIVMSSRIRLARNLENHVHPLMYATENDGFRVINEVQDALPNFELMRLDQMDQQSKMKMVAKHLISPELIKQPAAAVLVNDDESLSVMINEEDHIRIQAMGTDTTLQALYNQASSIDDELDRSLDISYDEQLGYLTTCPTNIGTGMRASVMLHLPGLSIMKRMTRIAQTINRFGYTIRGIYGEGSQVYGHTYQVSNQLTLGKSELEIIETLTEVVNQIIHEEKQIRQKLDTYNQLETQDRVFRSLGILQNCRMITMEEASYRLSEVKLGIDLNYIELQNFKFNELMVAIQSPFLLDEEDDKSVKEKRADILREHIK", "values": [{"measurement": "protein production", "result": "failed"}]}
{"sequence": "MSDIESLGEAAGLFEEPEDFLPPPPKPHFAEYQRSHITKESKSDVKDIKLRLVGTSPLWGHLLWNAGIYTANHLDSHPELIKGKTVLELGAAAALPSVICALNGAQMVVSTDYPDPDLMQNIDYNIKSNVPEDFNNVSTEGYIWGNDYSPLLAHIEKIGNNNGKFDLIILSDLVFNHTEHHKLLQTTKDLLAEKGQALVVFSPHRPKLLEKDLEFFELAKNEFHLVPQLIEMVNWKPMFDEDEETIEVRSRVYAYYLTHEK", "values": [{"measurement": "protein production", "result": "failed"}]}
{"sequence": "MDSAAPDCTAKCRSLKHALDVLSVITKGSERQIKIFLSSYCYNAATVKDAFGRNALHLVSSCGKKAVLDWLIEKGVDLLHGVSLYMQDKEGLSPLDLLMKDRPAHVVFKNTDPTEVYTWGDNTNFTLGHGSQNSKHHPELLDLFSRSRVYVKQVVLCKFHSVFLSQQGQVYTCGHGRGGRLGHGDEQTCLVPRLVEGLSGHSCSQVAAAKDHTVVLTEDGCVYTFGLNTFHQLGIIPPPSSCNVPRQSRSSKHGHNSAQLQLIPGERQLNLKKVLVSGGCMEYKVDPEHLTENGGQKICILAMDGAGRVFCWRSLSSSLKQCRWAYPRQVSISDIALNRNEILFVTQDGEGFKGKWFEDKRKNSEKKADILPNLHHSSSDVSCVSDTNSVYERIRLEKLPFAHRAVSVSTDPSGCNFAILQSDPKTSLYEIPVVSSSSFFEEFGKLLRETDEMDSFHDVTFQVGNRLFPAHKYVLAVRSDFFQKLFLSDGTLLELTDVYRKDEDAAGCHLFVVEKVHPDLFEYLLQFMYTDTCDFLTHGFKPRMIMNKKSEDSKGSPESRLHAVNCHVDDKQKSAFEVYRSNQAHTLSERQKSKPKSSKKGKGVGEDDPVKMLQNVAKKFGLSNLSSRLDGVRYENEKINVIAKKTGNKLKLSQKKCSFLYDVTMKSVDGKEFPCHKCVLCARLEYFHSMLSRSWIEASSCAALEMPIQAEILKVILDYLYTDEAVVIKESQNVDFVCSVLVVADQLLITRLKEMCEVALAENLTLKNAAMLLEFASMYNAEQLKLSCLQFIGLNMAALLEARSLDVLSEDVLKDLSIFYRKMVPAMERRVITPYQDGPDISCVQAEDGEVFLKEEISLEPNHSPWLSSSLAASPAVAPVTFASIVEEERQQEAALIRSREKPLALIQVEEHAIQDLLVFYEAFGNPDEFVIVERTPQGPVAVPMWNKHGC", "values": [{"measurement": "protein production", "result": "failed"}]}
{"sequence": "MNGTALNWLELCRTVGPCLRPGGTALTDRALEVCNLSADSLIADVGCGAGGTLYHLEQIGFRRLVGLDPSETLLGDAAPRLETARLIRGEAATIPLRSATVDLLLCECVLSVLPGRSAPLREFARVVKDGGYLVVSDVFSTAGDEATGQAGGLLTRKELLAAVAGNGFTLLRWETHDRLLKEFAVRMILAGECLPDAWKGGTERKGEAARGGLGYFLMVARKAEDPLP", "values": [{"measurement": "protein production", "result": "failed"}]}
{"sequence": "GKKDKEKIIDDFKVAVVTQPLSENKVQYNMVEEMAKEYEEENKIDKDKDGQTKVKQTIKHVVLPENFTSNIDSAINKIVKLADDKEVQAIVVSTDQAGLLPALQKVKEKRPEIITISAPMGDDKNQLSQFVDVNLGVSAEERGKVLAERSKEMGAKAFIHYASTDDLKDVNIAKRLEMIKETCKNIGLPFVQVNTPNINTEEDKNKVKQFLNEDIEKQVKKYGKDINVFGVNEYMDEVILTKALELKYIVAEQSNPSPIQTYPSVMGLKISEKDAQNYDKINDMISEKAKAFGMSNRLGGYPMPMDAFLPSLAIYLATEMVKQDLTQEDVCDPDYLEAFTELRFGIGSEFTPLTEVLYNYQSVILSQLIY", "values": [{"measurement": "protein production", "result": "not failed"}]}
{"sequence": "MVLEAFLVKKNEPNWLVVLRTVMPLGLSYIPIGLACGVLLHAAGFNHLLTALISVMVFSGGAQFLIASMLTINAPMTTIILMMFFLELRYALLGSSLSRYLKGQSLPFIFTFAFSMNDENYAVNYLKFATDKHWKPSQALMVEHYSLLFWTVSNIIGSLIGSALTINLQVVDFALTALFIYMAIMQTKSRLIILVAVLCGVLTIGFLVLMKSTLGLVVSTLLASLTGYFIERYLLAHKPESHLLYKVHDPTGQTAMEESDK", "values": [{"measurement": "protein production", "result": "failed"}]}
{"sequence": "MISHFGAPLIRYDPALQGHAVPQLDMKTFTRRQHRPRPLILAVGLGLGIALTAPLAAAQNAPSSQPWRDTALTADQRADRLLAQMTEDEKFQMLRSYLGLGTDKIPKPAGALGSAGYVPGIARLGIPAQQLADAGVGVTNPGGIRKGDYATAMPSVLSTASSWNRQLAYAGGKTMGRESWQQGFNVLLAGSVNLQRDPRNGRNFEYAGEDPLLAGTMVGESIRGVQSEHVLSTMKHFALNDMETRRNFHSAQIGEQAMHESDLLAFEIALKIGDPASVMCSYNKINGVYGCEHDYLLNQVLKQEWKYPGYVMSDWGGVHSGSKAALAGLDQESAGEVFDVAVFFDAPLRMAVSAGVVPRARFDDMVKRILRSLFAHGAFDYPTQRQPIDGKAGLLAAQHVAEAGSVLLRNEQAMLPVSQDVRRIAVIGGYADKGVMSGGGSSRVDVTINGGNAVPGITPTTWPGPVIIHPSSPLQALRAALPNAQIDYVDGKDRAAAARAAKAADVAIVFATQWATESVDLPDMRLPDNQDALIEAVAKANPKTTVVLETNGPVRMPWAERVPAVLQAWYPGIGGGEAIANLLTGTVNPSGHLPVTWPVDESQLPRPSIPGLGFKPAKPGEDTIDYAIEGANVGYKWFAAHKLTPRYPFGHGLSYTQFRMDGLRVEANGSQLTASFEVENIGQREGAAVPQLYVTLPDGHATPLRLIGWQKLTLKPGEKRSVQVVAEPKTLADFDAQARRWTIAAGTYRVQLARSASEPVQSAAVTLQAAQLP", "values": [{"measurement": "protein production", "result": "failed"}]}
{"sequence": "MMKLLSFDEACQWFDSLPAHKRIATLSPYYVLLDALRDTRLLATYIGFRQGDVFWMHSVHCSAAMAGEVIDLQSPYGYGGPISNCDDPVFLNMVWDLYVEFCARQGWLAEFVRFHPLGGVSSSYGGTIVVDRLTVAIDLTGPNIRSIYSTRCRTAVRKAINNGLNVRVGSERELREIFPHFYRDGMRAIAADKFYLFNDLYFSGFSTWKCATLLICHCDDDWLSAGIFLKDGNVMEYHLSATTPAGRNLGATNLLLDAAAHLGQEQGCSFLYLGGGTDSEKNNPLLFFKSGFSAATYPFLIGFTAFNQDKYQALREKFISDHKPTDRFLFYR", "values": [{"measurement": "protein production", "result": "failed"}]}
{"sequence": "GPPSRRSENRVVVSGLPPSGSWQDLKDHMREAGDVCYADVYRDGTGVVEFVRKEDMTYAVRKLDNTKFRSHEGETAYIRVKVDGPRSPSYGRSRSSGPSSG", "values": [{"measurement": "protein production", "result": "not failed"}]}
{"sequence": "MKTDFSLTQLADPDIAEADKILRACVHCGFCTATCPTYVLLGDELDSPRGRIYLIKEMLESDKPPTADVVKHIDRCLSCLACMTTCPSGVNYMHLVDQARVRIEKQYQRPFWDRVVREALSWMMPHPGMFRLGMWAARIVRPVAALLPGSHNLTHPTLLSRIKAMLALAPKHLPEPGPDSGTTFPAVGPKRGRVALLHGCAQQVLAPRINRAAINLLTRHGIEVVLAADEACCGALIHHLGRDTRTLEYARTNIKAWLAEIERGGLDAILVTTSGCGTVIKDYGYMLREDPEYAAAAAKVSALAKDISEYVSGLELSLPRPHDDVVVAYHSACSLQHGQKITQIPKELLSKTGFVVKDIPESHLCCGSAGTYNILQPDIATRLRDRKVANIASVKPDMIAAGNIGCMVQIASGTEVPVVHTIELLDWATGGPRPAPH", "values": [{"measurement": "protein production", "result": "failed"}]}
{"sequence": "MHSMKLLVTGGMGFIGSNFIRYILEKHPDWEVINIDKLGYGSNPANLKDLEDDPRYTFVKGDVADYELVKELVRKVDGVVHLAAESHVDRSISSPEIFLHSNVIGTYTLLESIRRENPEVRFVHVSTDEVYGDILKGSFTENDRLMPSSPYSATKAASDMLVLGWTRTYNLNASITRCTNNYGPYQFPEKLIPKTIIRASLGLKIPIYGTGKNVRDWLYVEDHVRAIELVLLKGESREIYNISAGEEKTNLEVVKIILRLMGKGEELIELVEDRPGHDLRYSLDSWKITRDLKWRPKYTFDEGIKKTIDWYLKNEWWWKPLVDERILHPTPWKLKW", "values": [{"measurement": "protein production", "result": "not failed"}]}
{"sequence": "MTAIPLTFYLGLAALLFSIGLYGVMTHKSGIRMIMCIELMLNSANLNLVAFSSYTDTLNGQVFAIFSIALAAAEAAVGFAIFMAIYRMHDKINLDELNILRW", "values": [{"measurement": "protein production", "result": "failed"}]}
{"sequence": "MEEGGDFDNYYGADNQSECEYTDWKSSGALIPAIYMLVFLLGTTGNGLVLWTVFRSSREKRRSADIFIASLAVADLTFVVTLPLWATYTYRDYDWPFGTFFCKLSSYLIFVNMYASVFCLTGLSFDRYLAIVRPVANARLRLRVSGAVATAVLWVLAALLAMPVMVLRTTGDLENTTKVQCYMDYSMVATVSSEWAWEVGLGVSSTTVGFVVPFTIMLTCYFFIAQTIAGHFRKERIEGLRKRRRLLSIIVVLVVTFALCWMPYHLVKTLYMLGSLLHWPCDFDLFLMNIFPYCTCISYVNSCLNPFLYAFFDPRFRQACTSMLCCGQSRCAGTSHSSSGEKSASYSSGHSQGPGPNMGKGGEQMHEKSIPYSQETLVVD", "values": [{"measurement": "protein production", "result": "not failed"}]}
{"sequence": "MWYTVQPGDSLYTISQRFGVTIAQIKSANQLTSDIIYVGQRLYIPIGIQAPVVYTVRPGDTLYLIARRYNTTVDSLMALNNLSSTELRIGQQLTIPLYTEAVVNVGTANIRRGPGTNFGIITRMTNGARLPVIGFSNNWYQVRLYNGREGWISGSIVTRNVYSGRRPITGVLGFYTLEEGPTLPSSFTSFANNTGQLSSTALFMFRISAANPTTIEKFGEFTDQDVRNLVAIAHRNNVKIMPVVHNLLYRPGGTTLAKNVVKTLVSDPRNRNAFALNLVNLIERYGFDGVNIDIEDVFIEDSDNLSLLYTEISEVLRPRGYFFSASVPSRVSDEPFNPFSDPFNYSVIGRAVDEFVVMLYNEFGWPGSPPGPAVTIGWMERVLRYTMSKMPRDKIMAAVSVFGFDFNLTTGRNTYVTYQSAINLARRYNSEIIFNEERQTPMFTYRDAQGNQHEVWFEDARSLRSKIQLAWELGIKGVALWRLGMEDPNIWPMLRNEVVVRKF", "values": [{"measurement": "protein production", "result": "failed"}]}
